These results are taken from paper PMC11058270, “Discovering a mitochondrion-localized BAHD acyltransferase involved in calystegine biosynthesis and engineering the production of 3β-tigloyloxytropane” (Nature Communications, 2024).

Data set [1] addresses T1, PcICS (isobutyryl CoA synthetase) (Pseudomonas chlororaphis, UniProt Q5CD72).
T1 construct: gene acsA; purified recombinant protein; tag and host for purification not described in main text
Kind of data set: enzyme assay, MS detection of tigloyl-CoA. It is filed as biochemical.

Data set [2] addresses T2, TS (3β-tigloyloxytropane synthase; AbTS) (Atropa belladonna, UniProt A0AAF1BX09).
T2 construct: full-length codon-optimised CDS (TSopt) in pMAL-c5x, N-terminal MBP tag (cleavage not mentioned), E. coli BL21 (DE3), amylose resin
Kind of data set: steady-state kinetics, LC-MS product analysis. It is filed as biochemical. The settings on record: co-substrate 3β-tropanol; 50 mM glycine-NaOH pH 8.6, 30 °C. From the text:
(§1) steady-state kinetics, LC-MS product analysis on TS (3β-tigloyloxytropane synthase; AbTS)

In data set [3] the test system is CN1[C@@H]2CC[C@H]1C[C@H](O)C2. Kind of data set: steady-state kinetics, LC-MS product analysis. The data set is classed as biochemical, Atropa belladonna. The conditions noted are these: acyl donor tigloyl-CoA, 50 mM glycine-NaOH pH 8.6, 30 °C.
Description: as §1

The subject of data set [4] is C/C=C(\C)C(=O)SCCNC(=O)CCNC(=O)[C@H](O)C(C)(C)COP(=O)(O)OP(=O)(O)OC[C@H]1O[C@@H](n2cnc3c(N)ncnc32)[C@H](O)[C@@H]1OP(=O)(O)O. Kind of data set: steady-state kinetics, LC-MS product analysis. It is filed as biochemical, Atropa belladonna. The conditions noted are these: co-substrate 3β-tropanol, 50 mM glycine-NaOH pH 8.6, 30 °C.
Description: as §1

The test system of data set [5] is CC(C)(COP(=O)(O)OP(=O)(O)OC[C@H]1O[C@@H](n2cnc3c(N)ncnc32)[C@H](O)[C@@H]1OP(=O)(O)O)[C@@H](O)C(=O)NCCC(=O)NCCSC(=O)c1ccccc1. Kind of data set: steady-state kinetics, LC-MS product analysis. The conditions noted are these: co-substrate 3β-tropanol, 50 mM glycine-NaOH pH 8.6, 30 °C. It is filed as biochemical, Atropa belladonna.
Description: as §1

Data set [6] deals with CC(=O)SCCNC(=O)CCNC(=O)[C@H](O)C(C)(C)COP(=O)(O)OP(=O)(O)OC[C@H]1O[C@@H](n2cnc3c(N)ncnc32)[C@H](O)[C@@H]1OP(=O)(O)O. Kind of data set: steady-state kinetics, LC-MS product analysis. It is filed as biochemical, Atropa belladonna. The settings on record: co-substrate 3β-tropanol, 50 mM glycine-NaOH pH 8.6, 30 °C.
Description: as §1

For `CC(C)(COP(=O)(O)OP(=O)(O)OC[C@H]1O[C@@H](n2cnc3c(N)ncnc32)[C@H](O)[C@@H]1OP(=O)(O)O)[C@@H](O)C(=O)NCCC(=O)NCCS` [CoA], the “enzyme assay, MS detection of tigloyl-CoA” value in data set [1] (co-substrate tiglic acid) is “purified PcICS catalyzed the synthesis of tigloyl-CoA from CoA and tiglic acid”.

Broadly, the Km is the concentration of substrate that gives half-maximal velocity. As for `CC(=O)SCCNC(=O)CCNC(=O)[C@H](O)C(C)(C)COP(=O)(O)OP(=O)(O)OC[C@H]1O[C@@H](n2cnc3c(N)ncnc32)[C@H](O)[C@@H]1OP(=O)(O)O` [acetyl-CoA], the Km in data set [2] was 90 ± 20 µM.

`CC(C)(COP(=O)(O)OP(=O)(O)OC[C@H]1O[C@@H](n2cnc3c(N)ncnc32)[C@H](O)[C@@H]1OP(=O)(O)O)[C@@H](O)C(=O)NCCC(=O)NCCSC(=O)c1ccccc1` [benzoyl-CoA]: the Km in data set [2] is 920 ± 580 µM.

With `C/C=C(\C)C(=O)O` [tiglic acid], in data set [1] (co-substrate CoA), the “enzyme assay, MS detection of tigloyl-CoA” value was “purified PcICS catalyzed the synthesis of tigloyl-CoA from CoA and tiglic acid”.

What is called kcat is the number of substrate molecules converted per active site and unit of time at saturation. One may read the kcat/Km as the turnover number divided by the Michaelis constant. “TS (3β-tigloyloxytropane synthase; AbTS) (Atropa belladonna)”: in data set [3], the Km worked out at 360 ± 50 µM, the kcat is 6.84 ± 0.3 s⁻¹ and the kcat/Km turned out to be 19000 ± 1660 M⁻¹ s⁻¹. Besides, in data set [4], the Km worked out at 20 ± 4 µM, the kcat amounted to 7.38 ± 0.25 s⁻¹ and the kcat/Km came to 338000 ± 49100 M⁻¹ s⁻¹.

Consider “TS (3β-tigloyloxytropane synthase; AbTS) (Atropa belladonna; F46I)”, for which the Km in data set [5] is 370 ± 90 µM; in data set [6] it was 350 ± 120 µM; in data set [3], 320 ± 60 µM; in data set [4], 410 ± 110 µM. Moreover, the turnover number (kcat) came out at 0.04 ± 0.004 s⁻¹ in data set [5], 0.005 ± 0.0008 s⁻¹ in data set [6], 1.44 ± 0.09 s⁻¹ in data set [3] and 1.42 ± 0.17 s⁻¹ in data set [4]. Further, the kcat/Km in data set [5] is 99.3 ± 13.3 M⁻¹ s⁻¹; in data set [6], 16.2 ± 3.42 M⁻¹ s⁻¹; in data set [3] it was 4550 ± 594 M⁻¹ s⁻¹; in data set [4], 3590 ± 570 M⁻¹ s⁻¹.

In the case of “TS (3β-tigloyloxytropane synthase; AbTS) (Atropa belladonna; F46I/S40T)”, in data set [5], the Km was determined as 260 ± 80 µM, the kcat was 0.08 ± 0.008 s⁻¹ and the kcat/Km came to 305 ± 54.1 M⁻¹ s⁻¹. Besides, in data set [4], the Km amounted to 150 ± 20 µM, the kcat is 2.27 ± 0.1 s⁻¹ and the kcat/Km amounted to 14800 ± 1370 M⁻¹ s⁻¹.

In the case of “TS (3β-tigloyloxytropane synthase; AbTS) (Atropa belladonna; S40T)”, the Km amounted to 840 ± 380 µM in data set [5], 70 ± 10 µM in data set [6], 320 ± 70 µM in data set [3] and 20 ± 3 µM in data set [4]. The kcat in data set [5] came to 0.03 ± 0.006 s⁻¹; in data set [6] it was 0.09 ± 0.004 s⁻¹; in data set [3], 11.1 ± 0.81 s⁻¹; in data set [4] it was 11.4 ± 0.34 s⁻¹. In addition, the kcat/Km in data set [5] is 32.7 ± 6.77 M⁻¹ s⁻¹; in data set [6], 1190 ± 155 M⁻¹ s⁻¹; in data set [3] it was 35200 ± 5480 M⁻¹ s⁻¹; in data set [4] it was 572000 ± 72300 M⁻¹ s⁻¹.
